Where two headings read alike, the source gives them in different places.
Key:
human VEGF (human) [1] = target: human VEGF (human) (UniProt P15692); assay: cell-based or functional assay
human VEGF (human) [2] = target: human VEGF (human) (UniProt P15692); assay: cell-based or functional assay; remark: listed apart in the source
[3] = target: LRP6 on HEK293S cells (human) (UniProt O75581); assay: cell-based or functional assay
mouse VEGF (mouse) [4] = target: mouse VEGF (mouse) (UniProt Q00731); assay: cell-based or functional assay
rat VEGF (rat) [5] = target: rat VEGF (rat) (UniProt P16612); assay: cell-based or functional assay
biotinylated VEGF165 [6] = target: biotinylated VEGF165 (UniProt P15692); assay: competition binding ELISA: blocks biotinylated VEGF165 binding to coated VEGFR1-Fc
biotinylated VEGF165 [7] = target: biotinylated VEGF165 (UniProt P15692); assay: competition binding ELISA: biotinylated VEGF165 premixed with the binder, then on coated VEGFR1-Fc (blocked partner), OD 450 nm
mouse VEGF (mouse) [8] = target: mouse VEGF (mouse) (UniProt Q00731); assay: cell-based or functional assay; remark: listed apart in the source
rat VEGF (rat) [9] = target: rat VEGF (rat) (UniProt P16612); assay: cell-based or functional assay; remark: listed apart in the source

Chain of human VEGF (human) (P15692 other isoform, or with tags, fused parts or gaps limits assumed): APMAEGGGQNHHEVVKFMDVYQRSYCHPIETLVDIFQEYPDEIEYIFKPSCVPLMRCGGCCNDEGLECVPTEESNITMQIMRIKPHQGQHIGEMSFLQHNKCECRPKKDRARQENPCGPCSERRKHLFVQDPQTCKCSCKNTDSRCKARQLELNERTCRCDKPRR
Chain of mouse VEGF (mouse) (Q00731 other isoform, or with tags, fused parts or gaps limits assumed): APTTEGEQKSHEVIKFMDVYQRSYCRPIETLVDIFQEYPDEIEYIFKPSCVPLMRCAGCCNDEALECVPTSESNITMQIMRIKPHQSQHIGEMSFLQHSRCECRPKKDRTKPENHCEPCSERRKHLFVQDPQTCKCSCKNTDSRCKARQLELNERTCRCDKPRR
Chain of biotinylated VEGF165 (P15692 other isoform, or with tags, fused parts or gaps limits assumed): as the sequence (P15692 other isoform, or with tags, fused parts or gaps limits assumed) above
Chain of rat VEGF (rat) (P16612 other isoform, or with tags, fused parts or gaps limits assumed): as the sequence (Q00731 other isoform, or with tags, fused parts or gaps limits assumed) above, with S10A, I14V, I75V counted along it
Chain of LRP6 on HEK293S cells (human) (O75581 20-1613): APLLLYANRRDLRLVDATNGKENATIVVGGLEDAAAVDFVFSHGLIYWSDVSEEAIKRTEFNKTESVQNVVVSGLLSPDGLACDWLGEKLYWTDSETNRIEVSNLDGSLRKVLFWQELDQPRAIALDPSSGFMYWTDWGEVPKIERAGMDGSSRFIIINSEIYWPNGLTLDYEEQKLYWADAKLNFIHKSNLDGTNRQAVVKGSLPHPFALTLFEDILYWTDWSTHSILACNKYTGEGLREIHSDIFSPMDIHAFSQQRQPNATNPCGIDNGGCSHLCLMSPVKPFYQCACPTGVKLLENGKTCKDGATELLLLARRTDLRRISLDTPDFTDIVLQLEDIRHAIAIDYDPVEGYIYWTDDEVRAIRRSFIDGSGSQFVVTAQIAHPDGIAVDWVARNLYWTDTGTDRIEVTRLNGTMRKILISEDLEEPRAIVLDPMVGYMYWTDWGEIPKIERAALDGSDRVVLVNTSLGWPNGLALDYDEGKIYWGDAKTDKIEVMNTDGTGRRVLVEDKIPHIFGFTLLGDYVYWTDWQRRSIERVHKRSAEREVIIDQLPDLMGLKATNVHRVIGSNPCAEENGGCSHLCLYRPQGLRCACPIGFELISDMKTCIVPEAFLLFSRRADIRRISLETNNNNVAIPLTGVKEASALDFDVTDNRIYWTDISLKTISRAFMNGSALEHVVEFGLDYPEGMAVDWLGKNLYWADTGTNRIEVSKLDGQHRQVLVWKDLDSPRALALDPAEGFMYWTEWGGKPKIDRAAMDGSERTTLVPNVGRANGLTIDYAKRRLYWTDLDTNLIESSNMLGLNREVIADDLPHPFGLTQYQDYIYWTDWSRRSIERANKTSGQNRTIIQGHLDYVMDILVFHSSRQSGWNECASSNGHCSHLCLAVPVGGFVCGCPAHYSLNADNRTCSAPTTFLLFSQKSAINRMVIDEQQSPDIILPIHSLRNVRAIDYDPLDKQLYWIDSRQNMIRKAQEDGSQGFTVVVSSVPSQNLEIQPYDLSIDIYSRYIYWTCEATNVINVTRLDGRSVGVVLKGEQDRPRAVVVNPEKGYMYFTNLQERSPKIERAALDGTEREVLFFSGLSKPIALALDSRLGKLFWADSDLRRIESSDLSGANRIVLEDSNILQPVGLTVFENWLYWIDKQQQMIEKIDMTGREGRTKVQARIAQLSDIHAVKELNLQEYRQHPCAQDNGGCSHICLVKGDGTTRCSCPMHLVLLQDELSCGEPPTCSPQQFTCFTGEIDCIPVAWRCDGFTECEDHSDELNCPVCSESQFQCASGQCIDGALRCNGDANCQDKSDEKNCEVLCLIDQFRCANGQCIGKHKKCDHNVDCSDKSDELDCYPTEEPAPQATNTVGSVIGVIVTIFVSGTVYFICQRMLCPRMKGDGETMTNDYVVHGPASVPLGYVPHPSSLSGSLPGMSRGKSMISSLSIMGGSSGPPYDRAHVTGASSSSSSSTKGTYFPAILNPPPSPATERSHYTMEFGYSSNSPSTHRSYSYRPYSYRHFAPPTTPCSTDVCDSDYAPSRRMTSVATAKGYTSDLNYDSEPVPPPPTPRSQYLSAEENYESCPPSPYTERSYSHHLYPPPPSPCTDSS

Which results are given for Lucentis (Fab)?
Inhibitory Activity (IC50, nM) against hVEGF in cell-based assays (human VEGF (human) [1]): 0.68 nM; Inhibitory activity (IC50, nM) against VEGF in cell-based assays (human VEGF (human) [2]): 0.63 nM

Which IC50, inhibition of Wnt1 signaling (luciferase reporter, HEK293S cells transfected by WNT1) [3] does the source give for anti-LRP6 inhibitory antibody YW210.09 here?
Its IC50, inhibition of Wnt1 signaling (luciferase reporter, HEK293S cells transfected by WNT1) is 28000 pM.

Which Inhibitory activity (IC50, nM) against VEGF in cell-based assays (mouse VEGF (mouse) [4]) does the source give for G6 anti-VEGF antibody here?
The Inhibitory activity (IC50, nM) against VEGF in cell-based assays was 0.12 nM.

And the Inhibitory activity (IC50, nM) against VEGF in cell-based assays (rat VEGF (rat) [5])?
Its Inhibitory activity (IC50, nM) against VEGF in cell-based assays is 0.13 nM.

And the Inhibitory Activity (IC50, nM) against hVEGF in cell-based assays (human VEGF (human) [1])?
The Inhibitory Activity (IC50, nM) against hVEGF in cell-based assays was 0.14 nM.

And the Inhibitory activity (IC50, nM) against VEGF in cell-based assays (human VEGF (human) [1])?
The Inhibitory activity (IC50, nM) against VEGF in cell-based assays was 0.21 nM.

And the IC50 (biotinylated VEGF165 [6])?
Its IC50 is 250 pM.

And the IC50 (biotinylated VEGF165 [7])?
Its IC50 is 200 pM.

And the Inhibitory activity (IC50, nM) against VEGF in cell-based assays (mouse VEGF (mouse) [8])?
Its Inhibitory activity (IC50, nM) against VEGF in cell-based assays is 0.19 nM.

What about the Inhibitory activity (IC50, nM) against VEGF in cell-based assays (rat VEGF (rat) [9]) of the same substance?
Its Inhibitory activity (IC50, nM) against VEGF in cell-based assays is 0.078 nM.

From patent US20170174733A1
